US20250243277A1 (AVACTA LIFE SCIENCES, published 2025)
Changes are numbered by the printed parent chain.

B1: Clone 123 (designed binder)
chain: MIPGGLSEAKPATPEIQEIVDKVKPQLEEKTGETYGKLEAVQYKTQVDNLVYYQRDWGTNYYIKVRAGDNKYMHLKVFKSLEPGRWRWPKEDLVLTGYQVDKNKDDELTGF
notes: His-tagged
B2: Clone 121 (designed binder)
chain: MIPGGLSEAKPATPEIQEIVDKVKPQLEEKTGETYGKLEAVQYKTQVDGNFAHERWQGTNYYIKVRAGDNKYMHLKVFKSLYIARDFDWTEDLVLTGYQVDKNKDDELTGF
notes: His-tagged
B3: Clone 113 (designed binder)
chain: MIPGGLSEAKPATPEIQEIVDKVKPQLEEKTGETYGKLEAVQYKTQVDWVTRHHTLVGTNYYIKVRAGDNKYMHLKVFKSLPPFKHWHLEDLVLTGYQVDKNKDDELTGF
notes: His-tagged
B4: Clone 116 (designed binder)
chain: B3 chain
notes: His-tagged
B5: Clone 126 (designed binder)
chain: MIPGGLSEAKPATPEIQEIVDKVKPQLEEKTGETYGKLEAVQYKTQVVYEPHHPYPWGTNYYIKVRAGDNKYMHLKVFKSLQYHPPYERFEDLVLTGYQVDKNKDDELTGF
notes: His-tagged
B6: Clone 110 (designed binder)
chain: MIPGGLSEAKPATPEIQEIVDKVKPQLEEKTGETYGKLEAVQYKTQVDHTQPKALDWGTNYYIKVRAGDNKYMHLKVFKSLWGSILTDGPEDLVLTGYQVDKNKDDELTGF
notes: His-tagged
B7: Clone 131 (designed binder)
chain: MIPGGLSEAKPATPEIQEIVDKVKPQLEEKTGETYGKLEAVQYKTQVVNQWEWPVDLGTNYYIKVRAGDNKYMHLKVFKSLKVYRTHHIFEDLVLTGYQVDKNKDDELTGF
notes: His-tagged
B8: Clone 114 (designed binder)
chain: MIPGGLSEAKPATPEIQEIVDKVKPQLEEKTGETYGKLEAVQYKTQVDQSSDLAKLWGTNYYIKVRAGDNKYMHLKVFKSLWNLNSDKSSEDLVLTGYQVDKNKDDELTGF
notes: His-tagged
B9: Clone 134 (designed binder)
chain: MIPGGLSEAKPATPEIQEIVDKVKPQLEEKTGETYGKLEAVQYKTQVVFWFEDIQWLGTNYYIKVRAGDNKYMHLKVFKSLRFREDVDIREDLVLTGYQVDKNKDDELTGF
notes: His-tagged
B10: Clone 29 (designed binder)
chain: MIPGGLSEAKPATPEIQEIVDKVKPQLEEKTGETYGKLEAVQYKTQVVFTFVDIHWYGTNYYIKVRAGDNKYMHLKVFKSLRKPKDRQYTEDLVLTGYQVDKNKDDELTGF
notes: His-tagged
B11: Clone 162 (designed binder)
chain: MIPGGLSEAKPATPEIQEIVDKVKPQLEEKTGETYGKLEAVQYKTQVVFTFSSIGWWGTNYYIKVRAGDNKYMHLKVFKSLRQLLDKPRYEDLVLTGYQVDKNKDDELTGF
notes: His-tagged
B12: Clone 128 (designed binder)
chain: MIPGGLSEAKPATPEIQEIVDKVKPQLEEKTGETYGKLEAVQYKTQVVPEVDKAEWWGTNYYIKVRAGDNKYMHLKVFKSLIRYGLRHEREDLVLTGYQVDKNKDDELTGF
notes: His-tagged
B13: Clone 133 (designed binder)
chain: MIPGGLSEAKPATPEIQEIVDKVKPQLEEKTGETYGKLEAVQYKTQVVLYSESRDYKGTNYYIKVRAGDNKYMHLKVFKSLHAYKGSIYREDLVLTGYQVDKNKDDELTGF
notes: His-tagged
B14: Clone 196 (designed binder)
chain: MIPGGLSEAKPATPEIQEIVDKVKPQLEEKTGETYGKLEAVQYKTQVVLLWTPPYVDGTNYYIKVRAGDNKYMHLKVFKSLGWNDDHSVGEDLVLTGYQVDKNKDDELTGF
notes: His-tagged
B15: Clone 240 (designed binder)
chain: MIPGGLSEAKPATPEIQEIVDKVKPQLEEKTGETYGKLEAVQYKTQVVLLYQAPFVQGTNYYIKVRAGDNKYMHLKVFKSLGWDLEYSQKEDLVLTGYQVDKNKDDELTGF
notes: His-tagged
B16: Clone 12 (designed binder)
chain: B14 chain with L49Q, W51K, T52F, D57S, N84D, D86K, H87P, S88E, V89W, G90D
notes: His-tagged
B17: Clone 161 (designed binder)
chain: MIPGGLSEAKPATPEIQEIVDKVKPQLEEKTGETYGKLEAVQYKTQVVVLERPPYVKGTNYYIKVRAGDNKYMHLKVFKSLNWEGEPSGVEDLVLTGYQVDKNKDDELTGF
notes: His-tagged
B18: Clone 16 (designed binder)
chain: MIPGGLSEAKPATPEIQEIVDKVKPQLEEKTGETYGKLEAVQYKTQVVHIQWPPWVEGTNYYIKVRAGDNKYMHLKVFKSLGWTSDNSNFEDLVLTGYQVDKNKDDELTGF
notes: His-tagged
B19: Clone 154 (designed binder)
chain: MIPGGLSEAKPATPEIQEIVDKVKPQLEEKTGETYGKLEAVQYKTQVVPQIGAPYVKGTNYYIKVRAGDNKYMHLKVFKSLGWNSNIGVLEDLVLTGYQVDKNKDDELTGF
notes: His-tagged
B20: Clone 219 (designed binder)
chain: MIPGGLSEAKPATPEIQEIVDKVKPQLEEKTGETYGKLEAVQYKTQVVPLTIPPFVEGTNYYIKVRAGDNKYMHLKVFKSLGWQQVNDVKEDLVLTGYQVDKNKDDELTGF
notes: His-tagged
B21: Clone 19 (designed binder)
chain: B14 chain with L49Y, L50R, W51F, T52G, D57K, D85A, D86F, H87S, V89P, G90A
notes: His-tagged
B22: Clone 130 (designed binder)
chain: MIPGGLSEAKPATPEIQEIVDKVKPQLEEKTGETYGKLEAVQYKTQVVPQPEWNEWGVTNYYIKVRAGDNKYMHLKVFKSLIFWNEKLIREDLVLTGYQVDKNKDDELTGF
notes: His-tagged
B23: Clone 127 (designed binder)
chain: MIPGGLSEAKPATPEIQEIVDKVKPQLEEKTGETYGKLEAVQYKTQVVTQAIPWREWGTNYYIKVRAGDNKYMHLKVFKSLIPEWPKDASEDLVLTGYQVDKNKDDELTGF
notes: His-tagged
B24: Clone 124 (designed binder)
chain: MIPGGLSEAKPATPEIQEIVDKVKPQLEEKTGETYGKLEAVQYKTQVDQVLWEIFEHGTNYYIKVRAGDNKYMHLKVFKSLFHQWSPALHEDLVLTGYQVDKNKDDELTGF
notes: His-tagged
B25: Clone 119 (designed binder)
chain: MIPGGLSEAKPATPEIQEIVDKVKPQLEEKTGETYGKLEAVQYKTQVDSWVFKPFYHGTNYYIKVRAGDNKYMHLKVFKSLSGPEFFSRHEDLVLTGYQVDKNKDDELTGF
notes: His-tagged
B26: Clone 118 (designed binder)
chain: MIPGGLSEAKPATPEIQEIVDKVKPQLEEKTGETYGKLEAVQYKTQVDVISIPLVWNGTNYYIKVRAGDNKYMHLKVFKSLIFQEYYPHREDLVLTGYQVDKNKDDELTGF
notes: His-tagged
B27: Clone 122 (designed binder)
chain: B26 chain with S51H, L54H, V55Q, N57H, Q84H, Y86P, Y87K, H89P
notes: His-tagged
B28: Clone 117 (designed binder)
chain: MIPGGLSEAKPATPEIQEIVDKVKPQLEEKTGETYGKLEAVQYKTQVDHEVRKTYEFGTNYYIKVRAGDNKYMHLKVFKSLWFGGWPLAQEDLVLTGYQVDKNKDDELTGF
notes: His-tagged
B29: Clone 132 (designed binder)
chain: MIPGGLSEAKPATPEIQEIVDKVKPQLEEKTGETYGKLEAVQYKTQVVERYHFPQFTGTNYYIKVRAGDNKYMHLKVFKSLNHDQVRWNLEDLVLTGYQVDKNKDDELTGF
notes: His-tagged
B30: Clone 112 (designed binder)
chain: MIPGGLSEAKPATPEIQEIVDKVKPQLEEKTGETYGKLEAVQYKTQVDRFYHQWHFLGTNYYIKVRAGDNKYMHLKVFKSLDLRAPRNDNEDLVLTGYQVDKNKDDELTGF
notes: His-tagged
B31: Clone 115 (designed binder)
chain: B30 chain
notes: His-tagged
B32: Clone 120 (designed binder)
chain: MIPGGLSEAKPATPEIQEIVDKVKPQLEEKTGETYGKLEAVQYKTQVDPEVSITRWQGTNYYIKVRAGDNKYMHLKVFKSLYETHGNIITEDLVLTGYQVDKNKDDELTGF
notes: His-tagged
B33: Clone 125 (designed binder)
chain: MIPGGLSEAKPATPEIQEIVDKVKPQLEEKTGETYGKLEAVQYKTQVVTRLHFPQYQGTNYYIKVRAGDNKYMHLKVFKSLEIEVNPYANEDLVLTGYQVDKNKDDELTGF
notes: His-tagged
B34: Clone 13 (designed binder)
chain: MIPGGLSEAKPATPEIQEIVDKVKPQLEEKTGETYGKLEAVQYKTQVVLFREEKYNYGTNYYIKVRAGDNKYMHLKVFKSLAWGEVVSNAEDLVLTGYQVDKNKDDELTGF
notes: His-tagged

Each binder was assayed against T1, human PD-L1-Fc (R&D Systems) (human, UniProt Q9NZQ7 19-239) (assay: soluble Affimer ELISA).
T1 construct: Bought from R&D Systems; Biotinylated in-house for the phage selection; also called huPD-L1-Fc; human PD-L1-Fc antigen; not shown: Fc part of the bought fusion
T1 sequence (Q9NZQ7 19-239 limits assumed): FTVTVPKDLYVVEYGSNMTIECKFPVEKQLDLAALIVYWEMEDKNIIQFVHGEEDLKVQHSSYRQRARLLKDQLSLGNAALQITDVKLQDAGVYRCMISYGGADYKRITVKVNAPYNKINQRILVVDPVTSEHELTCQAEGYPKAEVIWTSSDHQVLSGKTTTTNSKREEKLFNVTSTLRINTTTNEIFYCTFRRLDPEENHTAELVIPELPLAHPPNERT

Binding result, binds:
B1
B2
B3
B4
B5
B6
B7
B8
B9
B10
B11
B12
B13
B14
B15
B16
B17
B18
B19
B20
B21
B22
B23
B24
B25
B26
B27
B28
B29
B30
B31
B32
B33
B34
